{"source": "paper PMC4191155", "about": "“FaPOD27 functions in the metabolism of polyphenols in strawberry fruit (Fragaria sp.)” (Frontiers in Plant Science, 2014)", "key": {"FaPOD27": {"biological_target": "T1, FaPOD27 (Fragaria x ananassa, UniProt J7IER7)", "T1 construct": "GST fusion, E. coli, crude protein", "T1 sequence (J7IER7 1-329)": "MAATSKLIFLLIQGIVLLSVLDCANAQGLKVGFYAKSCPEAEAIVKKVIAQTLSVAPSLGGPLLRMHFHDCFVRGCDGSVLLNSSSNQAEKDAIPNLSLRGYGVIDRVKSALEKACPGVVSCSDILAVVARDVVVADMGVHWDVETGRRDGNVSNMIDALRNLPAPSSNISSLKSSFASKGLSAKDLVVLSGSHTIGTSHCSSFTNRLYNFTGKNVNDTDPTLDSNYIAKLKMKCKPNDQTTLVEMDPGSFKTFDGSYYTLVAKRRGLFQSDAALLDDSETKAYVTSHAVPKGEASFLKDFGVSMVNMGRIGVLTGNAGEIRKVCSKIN", "experiment": "LC-UV-ESI-MSn product identification", "type": "biochemical", "conditions": "H2O2, sodium tartrate pH 3.5, room temperature; crude E. coli protein"}, "FaCAD": {"biological_target": "T2, FaCAD (Fragaria x ananassa, UniProt J7IAL0)", "T2 construct": "full-length ORF 1077 bp, 359 aa, 39 kDa; pYES2 in S. cerevisiae INVSc1, crude protein", "T2 sequence (J7IAL0 1-359)": "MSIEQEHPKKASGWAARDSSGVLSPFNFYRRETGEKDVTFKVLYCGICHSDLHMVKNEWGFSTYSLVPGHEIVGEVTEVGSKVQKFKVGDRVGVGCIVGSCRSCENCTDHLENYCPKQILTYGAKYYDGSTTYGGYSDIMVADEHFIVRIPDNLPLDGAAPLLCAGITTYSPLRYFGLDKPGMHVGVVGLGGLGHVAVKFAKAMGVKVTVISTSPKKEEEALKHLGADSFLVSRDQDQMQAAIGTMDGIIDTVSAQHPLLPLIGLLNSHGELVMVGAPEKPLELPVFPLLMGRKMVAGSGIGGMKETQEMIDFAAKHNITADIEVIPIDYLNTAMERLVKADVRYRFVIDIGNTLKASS", "experiment": "LC-UV-ESI-MSn product identification", "type": "biochemical", "conditions": "NADPH 200 μM, coniferaldehyde 100 μM, sodium phosphate pH 6.5, 30 °C; crude yeast protein"}, "[1]": {"substrate": "CC(C)(COP(=O)(O)OP(=O)(O)OC[C@H]1O[C@@H](n2cnc3c(N)ncnc32)[C@H](O)[C@@H]1OP(=O)(O)O)[C@@H](O)C(=O)NCCC(=O)NCCSC(=O)/C=C/c1ccc(O)c(O)c1", "experiment": "spectrophotometric CCR assay", "type": "biochemical, Fragaria x ananassa", "conditions": "NADPH, sodium phosphate, pH optimum 6, 25 °C, apparent Km", "excerpt": "(§1) spectrophotometric CCR assay on GST-FaCCR"}, "[2]": {"substrate": "CC(C)(COP(=O)(O)OP(=O)(O)OC[C@H]1O[C@@H](n2cnc3c(N)ncnc32)[C@H](O)[C@@H]1OP(=O)(O)O)[C@@H](O)C(=O)NCCC(=O)NCCSC(=O)/C=C/c1ccc(O)cc1", "experiment": "spectrophotometric CCR assay", "type": "biochemical, Fragaria x ananassa", "conditions": "NADPH, sodium phosphate, pH optimum 6, 25 °C, apparent Km", "excerpt": "as §1"}, "[3]": {"substrate": "COc1cc(/C=C/C(=O)SCCNC(=O)CCNC(=O)[C@H](O)C(C)(C)COP(=O)(O)OP(=O)(O)OC[C@H]2O[C@@H](n3cnc4c(N)ncnc43)[C@H](O)[C@@H]2OP(=O)(O)O)ccc1O", "experiment": "spectrophotometric CCR assay", "type": "biochemical, Fragaria x ananassa", "conditions": "NADPH, sodium phosphate, pH optimum 6, 25 °C, apparent Km", "excerpt": "as §1"}}, "data": [{"molecule": "COc1cc(/C=C/CO)ccc1O", "note": "[coniferyl alcohol]", "values": [{"measurement": "LC-UV-ESI-MSn product identification", "setting": "FaPOD27", "result": "ferulic acid and coniferyl alcohol were almost completely oxidized in the presence of H2O2"}]}, {"molecule": "COc1cc(/C=C/C(=O)O)ccc1O", "note": "[ferulic acid]", "values": [{"measurement": "LC-UV-ESI-MSn product identification", "setting": "FaPOD27", "result": "ferulic acid and coniferyl alcohol were almost completely oxidized in the presence of H2O2"}]}, {"molecule": "COc1cc(/C=C/C=O)ccc1O", "note": "[coniferaldehyde]", "values": [{"measurement": "LC-UV-ESI-MSn product identification", "setting": "FaCAD", "result": "FaCAD was expressed in yeast cells and showed that coniferyl alcohol was generated"}]}, {"molecule": "GST-FaCCR (Fragaria x ananassa) (protein) MPVDNCSSLSGHGQTVCVTGAGGFFASWLVKLLLERGYNVRGTVRNPEDPKNAHLRELEGAKERLSLRKADLLDFESLKEAINGCDGVFHTASPVTDDPEQMVEPAVNGTKNVIVAAAEAKVKRVVFTSSIGAVYMDPARGPDVVVDESCWSDLEFCKNTKNWYCYGKAVAEQAAWEEAKERGVDLVVVNPVLVLGPLLQPTINASIIHILKYLTGSAKTYANSVQAYVHVKDVALAHILVYETPSASGRYLCAESVLHRGDVVEILAKFFPEYPIPSKLKDDGKPRAIPYKFSNQKLQDLGLEFTSVKQSLYDTVKSLQEKGHLKVPTKQEEDSFKIQ", "values": [{"measurement": "Km", "setting": "[1]", "result": "25.48 ± 0.82", "unit": "µM"}, {"measurement": "kcat/Km", "setting": "[1]", "result": 1.15, "unit": "M⁻¹ s⁻¹"}, {"measurement": "Km", "setting": "[2]", "result": "24.75 ± 1.23", "unit": "µM"}, {"measurement": "kcat/Km", "setting": "[2]", "result": 1.07, "unit": "M⁻¹ s⁻¹"}, {"measurement": "Km", "setting": "[3]", "result": "16.11 ± 1.39", "unit": "µM"}, {"measurement": "kcat/Km", "setting": "[3]", "result": 145, "unit": "M⁻¹ s⁻¹"}]}]}
